Measured values reported in patent US7867500B2, “Cofactor that modulates steroid receptor activities” (The United States of America as represented by the …, priority 2004, dated 2011).

T1: GR (Rattus norvegicus, UniProt P06536)
T1 construct: plus VP16 fused to the indicated full length receptors; expressed in transfected cells; host or cells: CV-1
T1 sequence (P06536 1-795): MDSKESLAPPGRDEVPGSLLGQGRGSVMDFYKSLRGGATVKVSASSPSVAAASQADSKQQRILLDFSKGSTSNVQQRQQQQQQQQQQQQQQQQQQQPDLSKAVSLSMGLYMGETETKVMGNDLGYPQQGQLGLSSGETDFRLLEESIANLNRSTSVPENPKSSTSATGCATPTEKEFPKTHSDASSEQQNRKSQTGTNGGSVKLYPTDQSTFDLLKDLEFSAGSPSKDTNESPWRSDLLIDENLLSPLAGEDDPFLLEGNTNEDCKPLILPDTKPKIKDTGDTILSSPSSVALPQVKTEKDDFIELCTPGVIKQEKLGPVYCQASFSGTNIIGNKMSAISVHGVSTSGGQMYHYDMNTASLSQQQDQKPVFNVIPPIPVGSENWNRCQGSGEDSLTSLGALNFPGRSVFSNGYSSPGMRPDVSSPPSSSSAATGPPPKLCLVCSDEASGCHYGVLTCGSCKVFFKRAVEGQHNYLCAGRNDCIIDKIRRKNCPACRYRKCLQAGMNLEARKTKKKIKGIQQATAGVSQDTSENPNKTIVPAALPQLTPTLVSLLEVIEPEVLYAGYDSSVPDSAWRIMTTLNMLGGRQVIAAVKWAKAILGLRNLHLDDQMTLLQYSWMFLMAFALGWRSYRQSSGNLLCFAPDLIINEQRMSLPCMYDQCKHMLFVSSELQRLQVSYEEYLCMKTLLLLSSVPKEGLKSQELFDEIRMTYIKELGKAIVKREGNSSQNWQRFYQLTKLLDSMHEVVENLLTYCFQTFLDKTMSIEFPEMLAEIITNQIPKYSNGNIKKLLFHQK

T2: androgen receptor (AR) (Homo sapiens, UniProt P10275)
T2 construct: the whole cell actions of TIF2 with full length AR and TRβ; expressed in transfected cells; host or cells: CV-1
T2 sequence (P10275 1-920): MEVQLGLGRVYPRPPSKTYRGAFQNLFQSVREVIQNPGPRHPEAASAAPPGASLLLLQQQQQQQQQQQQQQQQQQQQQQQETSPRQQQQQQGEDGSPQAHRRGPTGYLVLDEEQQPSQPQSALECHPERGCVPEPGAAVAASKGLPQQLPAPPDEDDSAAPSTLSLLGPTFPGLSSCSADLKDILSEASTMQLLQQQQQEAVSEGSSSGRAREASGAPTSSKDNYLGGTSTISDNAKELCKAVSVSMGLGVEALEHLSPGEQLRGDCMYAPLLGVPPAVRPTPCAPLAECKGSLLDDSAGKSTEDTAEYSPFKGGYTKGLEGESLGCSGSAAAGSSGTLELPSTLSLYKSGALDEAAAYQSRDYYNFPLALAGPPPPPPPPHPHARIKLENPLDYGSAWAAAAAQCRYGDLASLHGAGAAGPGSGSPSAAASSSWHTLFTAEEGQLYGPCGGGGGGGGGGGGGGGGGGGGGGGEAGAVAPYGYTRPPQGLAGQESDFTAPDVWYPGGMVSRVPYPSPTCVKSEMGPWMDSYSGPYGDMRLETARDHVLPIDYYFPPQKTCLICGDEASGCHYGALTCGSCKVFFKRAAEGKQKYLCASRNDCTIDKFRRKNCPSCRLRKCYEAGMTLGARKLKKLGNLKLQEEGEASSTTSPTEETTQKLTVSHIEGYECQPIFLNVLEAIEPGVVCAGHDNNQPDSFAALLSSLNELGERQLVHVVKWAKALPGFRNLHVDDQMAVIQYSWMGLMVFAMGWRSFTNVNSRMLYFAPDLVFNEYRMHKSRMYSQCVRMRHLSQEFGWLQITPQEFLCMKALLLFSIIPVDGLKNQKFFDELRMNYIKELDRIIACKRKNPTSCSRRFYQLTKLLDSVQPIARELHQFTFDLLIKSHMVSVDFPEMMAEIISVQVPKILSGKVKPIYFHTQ

B1: 6-6CL1: STAMP fragment amino acids 623-834, coactivator interaction domain (CID) (protein)
chain: ENTPKENSMKVREWNNKGGHCCKLETQELEPKFNLMQILQDNGNLSKMQARIAFSAYLQHVQIRLMKDSGGQTFSASWAAKEDEQMELVVRFLKRASNNLQHSLRMVLPSRRLALLERRRILAHQLGDFIIVYNKETEQMAEKKSKKKVEEEEEDGVNMENFQEFIRQASEAELEEVLTFYTQKNKSASVFLGTHSKISKNNNNYSDSGAKG
B2: STAMP834C: STAMP fragment amino acids 834-1277, receptor interaction domain (RID) (protein)
chain: GDHPETIMEEVKIKPPKQQQTTEIHSDKLSRFTTSAEKEAKLVYSNSSSGPTATLQKIPNTHLSSVTTSDLSPGPCHHSSLSQIPSAIPSMPHQPTILLNTVSASASPCLHPGAQNIPSPTGLPRCRSGSHTIGPFSSFQSAAHIYSQKLSRPSSAKAGSCYLNKHHSGIAKTQKEGEDASLYSKRYNQSMVTAELQRLAEKQAARQYSPSSHINLLTQQVTNLNLATGIINRSSASAPPTLRPIISPSGPTWSTQSDPQAPENHSSSPGSRSLQTGGFAWEGEVENNVYSQATGVVPQHKYHPTAGSYQLQFALQQLEQQKLQSRQLLDQSRARHQAIFGSQTLPNSNLWTMNNGAGCRISSATASGQKPTTLPQKVVPPPSSCASLVPKPPPNHEQVLRRATSQKASKGSSAEGQLNGLQSSLNPAASVPITSSTDPAHTKI
B3: STAMP: SRC-1 and TIF2 Associated Modulatory Protein, 1277 amino acid human polypeptide, expressed from transfected plasmid (protein)
chain: MARDLEETASSSEDEEVISQEDHPCIMWTGGCRRIPVLVFHADAILTKDNNIRVIGERYHLSYKIVRTDSRLVRSILTAHGFHEVHPSSTDYNLMWTGSHLKPFLLRTLSEAQKVNHFPRSYELTRKDRLYKNIIRMQHTHGFKVFHILPQTFLLPAEYAEFCNSYSKDRGPWIVKPVASSRGRGVYLINNPNQISLEENILVSRYINNPLLIDDFKFDVRLYVLVTSYDPLVIYLYEEGLARFATVRYDQGAKNIRNQFMHLTNYSVNKKSGDYVSCDDPEVEDYGNKWSMSAMLRYLKQEGRDTTALMAHVEDLIIKTIISAELAIATACKTFVPHRSSCFELYGFDVLIDSTLKPWLLEVNLSPSLACDAPLDLKIKASMISDMFTVVGFVCQDPAQRASTRPIYPTFESSRRNPFQKPQRCRPLSASDAEMKNLVGSAREKGPGKLGGSVLGLSMEEIKVLRRVKEENDRRGGFIRIFPTSETWEIYGSYLEHKTSMNYMLATRLFQDRMTADGAPELKIESLNSKAKLHAALYERKLLSLEVRKRRRRSSRLRAMRPKYPVITQPAEMNVKTETESEEEEEVALDNEDEEQEASQEESAGFLRENQAKYTPSLTALVENTPKENSMKVREWNNKGGHCCKLETQELEPKFNLMQILQDNGNLSKMQARIAFSAYLQHVQIRLMKDSGGQTFSASWAAKEDEQMELVVRFLKRASNNLQHSLRMVLPSRRLALLERRRILAHQLGDFIIVYNKETEQMAEKKSKKKVEEEEEDGVNMENFQEFIRQASEAELEEVLTFYTQKNKSASVFLGTHSKISKNNNNYSDSGAKGDHPETIMEEVKIKPPKQQQTTEIHSDKLSRFTTSAEKEAKLVYSNSSSGPTATLQKIPNTHLSSVTTSDLSPGPCHHSSLSQIPSAIPSMPHQPTILLNTVSASASPCLHPGAQNIPSPTGLPRCRSGSHTIGPFSSFQSAAHIYSQKLSRPSSAKAGSCYLNKHHSGIAKTQKEGEDASLYSKRYNQSMVTAELQRLAEKQAARQYSPSSHINLLTQQVTNLNLATGIINRSSASAPPTLRPIISPSGPTWSTQSDPQAPENHSSSPGSRSLQTGGFAWEGEVENNVYSQATGVVPQHKYHPTAGSYQLQFALQQLEQQKLQSRQLLDQSRARHQAIFGSQTLPNSNLWTMNNGAGCRISSATASGQKPTTLPQKVVPPPSSCASLVPKPPPNHEQVLRRATSQKASKGSSAEGQLNGLQSSLNPAASVPITSSTDPAHTKI

Experiments:
GR = target: T1, GR; assay: Mammalian two-hybrid assay in CV-1 cells with VP16/GR; assay type: cell-based; conditions: VP16/GR ± 1 μM Dex
Text: FIGS. 6A and 6B illustrate the domains of STAMP that interact with TIF2.4 (FIG. 6A) and GR (FIG. 6B) in the mammalian two-hybrid assay. […] These CV-1 cells were also transfected with GAL fused to the indicated segments of STAMP along with the FRLuc reporter and Renilla control plasmids. After determining the relative luciferase activities as described in FIG. 2B and 2C, the average values±S.E.M. from 2-5 experiments were plotted. The average fold increase for VP16/TIF2.4 with GAL/STAMP(623-834) in FIG. 6A was 11.0±3.0 (SEM, n=5) above the VP16 control. The values in parentheses above the data bars in FIG. 6B indicate the fold increased interaction ±1 μM Dex.
These assays were conducted as described (He et al., 2002). In particular, the recommended procedure for the Mammalian Matchmaker two-hybrid assay kit (Clontech) was modified slightly by changing from a chloramphenicol acetyltransferase reporter to a Luciferase Reporter pFRLuc (Stratagene), which is under the control of five repeats of the upstream activating sequence for the binding of GAL4.

androgen receptor (AR) = target: T2, androgen receptor (AR); assay: AR-mediated induction of GREtkLUC reporter in CV-1 cells; assay type: cell-based; conditions: R1881
Protocol: FIG. 6D1-2 illustrate the effects of STAMP and TIF2 on androgen receptor (AR, FIG. 6D1) and thyroid receptor β (TRβ, FIG. 6D2) expression. […] Luciferase activities, normalized to the internal Renilla control values, and the fold changes in EC50 and fold induction were determined and plotted as in FIG. 4B.

Molecule	interaction with GR (GR)	left-shift of the dose-response curve of ARs (androgen receptor (AR); STAMP added by itself)	fold induction by AR (androgen receptor (AR); STAMP with TIF2)	fold induction by AR (androgen receptor (AR); STAMP without TIF2)	left-shift of the dose-response curve of ARs (androgen receptor (AR); in the presence of TIF2)
B1	relative inactivity	–	–	–	–
B2	largest agonist-induced changes	–	–	–	–
B3	–	not when added by itself	no additional effect	increases the fold induction	augments the left-shift
